Measured values from patent US20200016207A1, “[…] c-MPL PROVIDES LIGAND-DEPENDENT CO-STIMULATION AND CYTOKINE SIGNALS TO TCR-ENGINEERED T CELLS” (Baylor College of Medicine, priority 2017, published 2020).

B1: thrombopoietin (protein)
chain: SPAPPACDLRVLSKLLRDSHVLHSRLSQCPEVHPLPTPVLLPAVDFSLGEWKTQMEETKAQDILGAVTLLLEGVMAARGQLGPTCLSSLLGQLSGQVRLLLGALQSLLGTQLPPQGRTTAHKDPNAIFLSFQHLLRGKVRFLMLVGGSTLCVRRAPPTTAVPSRTSLVLTLNEL
notes: recombinant human thrombopoietin, ligand of c-MPL

What was measured:
[1] = target: hematopoietic growth factor receptor c-MPL (myeloproliferative leukemia), the receptor for thrombopoietin, transgenic on human T cells (Homo sapiens (Human)) (UniProt P40238); test: cell-based or functional assay
U266 myeloma cells = test: Co-culture of TCR+c-MPL+ T cells with U266 myeloma cells; type: cell-based, human; details: rhTPO 50 ng/ml, IL2 25 U/ml, n=3
Experimental: (§1) Cells were stained ith antibodies and analyzed by flow cytometry. Cells were stained with FITC-, phycoerythrin- (PE-), peridinin chlorophyll protein-(PerCP-), or allophycocyanin-conjugated (APC-conjugated) antibodies (Abs) against CD3, CD4, CD8, CD110 (c-MPL), murine TCR constant region (mCβ, ebioscience), CD19, or CD138. Cell viability was assessed by 7-AAD staining. T cells and tumor cell populations from co-culture assays were quantified by adding CountBright Beads (Invitrogen) to the analysis. T cell memory marker expression on CD8+ T cells re-covered from co-cultures was analyzed by staining cells with FITC-, PE-, ECD-, PerCP-, APC-, APC-AF750, or V450-conjugated Abs against CD45RO, CD45RA, CD62L, CCR7, CD110, mCβ, CD19, and 7AAD. Intracellular staining for phosphoproteins pSTAT3 and pSTAT5 was performed with PE- and Pacific Blue-conjugated Abs and Phosflow reagents (BD). To assess cell proliferation, cells were labeled with Carboxyfluorescein succinimidyl ester (CFSE, ThermoFisher) and analyzed after 7 days of culture. All antibodies were purchased from BD or Beckman Coulter unless otherwise indicated, and all staining procedures were performed according to the manufacturer's recommendation. Data acquisition was performed on a BD FACSCalibur using CellQuest software or a Beckman Coulter Gallios flow cytometer using Kaluza software. […]

TCR+c-MPL+ T cells [2] = test: Antigen-specific expansion with survivin peptide-pulsed aAPCs, TCR+c-MPL+ T cells; type: cell-based, human; details: rhTPO 5, 50, 500 ng/ml, two stimulations
Experimental: aAPCs (described above) were pulsed with the […] survivin peptide (Genemed Synthesis), irradiated at 100 cGy, and used to stimulate T cells at an E:T ratio of 4:1 with IL-2 (50 U/mL) or rhTPO (5 ng/mL, 50 ng/mL, or 500 ng/mL). At the end of the first stimulation (7 days), cells were collected, counted, phenotyped and re-stimulated with fresh peptide-pulsed aAPCs under the same conditions. Fold expansion was recorded at the end of the second stimulation.

BV173 leukemia cells [3] = test: Serial (sequential) co-culture with BV173 leukemia cells; type: cell-based, human
Experimental: Cells were stained ith antibodies and analyzed by flow cytometry. Cells were stained with FITC-, phycoerythrin- (PE-), peridinin chlorophyll protein-(PerCP-), or allophycocyanin-conjugated (APC-conjugated) antibodies (Abs) against CD3, CD4, CD8, CD110 (c-MPL), murine TCR constant region (mCβ, ebioscience), CD19, or CD138. Cell viability was assessed by 7-AAD staining. T cells and tumor cell populations from co-culture assays were quantified by adding CountBright Beads (Invitrogen) to the analysis. T cell memory marker expression on CD8+ T cells re-covered from co-cultures was analyzed by staining cells with FITC-, PE-, ECD-, PerCP-, APC-, APC-AF750, or V450-conjugated Abs against CD45RO, CD45RA, CD62L, CCR7, CD110, mCβ, CD19, and 7AAD. Intracellular staining for phosphoproteins pSTAT3 and pSTAT5 was performed with PE- and Pacific Blue-conjugated Abs and Phosflow reagents (BD). To assess cell proliferation, cells were labeled with Carboxyfluorescein succinimidyl ester (CFSE, ThermoFisher) and analyzed after 7 days of culture. All antibodies were purchased from BD or Beckman Coulter unless otherwise indicated, and all staining procedures were performed according to the manufacturer's recommendation. Data acquisition was performed on a BD FACSCalibur using CellQuest software or a Beckman Coulter Gallios flow cytometer using Kaluza software. Data analysis was performed with FlowJo software (Tree Star Inc.).
BV173 or U266B1 cells and T cells were co-cultured in up to eight replicate wells at various E:T ratios in CTL media with no cytokines, rhTPO (5 ng/mL or 50 ng/mL), or EP (0.1 μg/mL). […] Co-culture supernatants were harvested 24 hours after initial plating or tumor-cell add-back to replicate wells and stored at −80° C. for further analysis.

[4] = system: c-MPL downstream signaling in c-MPL+ T cells; test: Phosflow for pSTAT5, c-MPL downstream signaling; type: cell-based, human; details: rhTPO 5 and 50 ng/ml; EP 0.1 μg/ml; 1 or 24 hours
Experimental: as §1

[5] = system: immune synapses between TCR+c-MPL+ T cells and BV173 leukemia cells; test: Immunological synapse imaging (confocal microscopy); type: cell-based, human; details: mean±SD
Experimental: T cells isolated from sequential killing co-cultures and fresh BV173 target cells were mixed at E:T 1:2, incubated for 10 minutes, fixed, permeabilized, stained with the appropriate antibodies, and analyzed on a Leica TCS SP8 laser scanning microscope. T cells were co-cultured with BV173 cells at an E:T ratio of 1:5 in CTL media with no cytokines, rhTPO (50 ng/mL) or EP (0.1 μg/mL). After one killing (no cytokine condition) or three sequential killings (rhTPO and EP conditions), cells were collected and dead cells removed (Dead Cell Removal Kit, Miltenyi) (FIG. 4A). For confocal microscopy, T cells and fresh BV173 target cells were mixed at E:T ratio of 1:2, incubated for ten minutes in a tube and ten minutes on silane-coated glass slides (Electron Microscopy Sciences) at 37° C. Cells were then permeabilized and fixed with Perm/Fix solution (BD) for 15 minutes at room temperature and stained with anti-Pericentrin (rabbit, Abcam) and anti-Perforin Alexa-488 (mouse, BD Biosciences) primary antibodies. Phalloidin 568 (Life Technologies) was used to detect F-actin. Cells were imaged as Z stacks of 0.2 μm thickness to cover their entire volume on a Leica TCS SP8 laser scanning microscope using a 100× objective. Images were acquired with the LASAF software (Leica) and analyzed with Imaris software (Imaris) and Fiji.

c-MPL+ T cells = test: Expansion of polyclonal c-MPL+ T cells in TPO; type: cell-based, human; details: cell number from 3×10^6 cells, TPO 50 ng/ml, mean±SD, n=4
Experimental: (§2) […] Transient retroviral supernatant was prepared by transfection of 293T cells and activated T cells were transduced as described (Arber et al., 2015). The number of retroviral integrants in TCR+c-MPL+ T cells was estimated by quantitative PCR. Whole PBMC's were isolated from fresh buffy coats by Lymphoprep (Axis-Shield) density gradient centrifugation. If required, CD8+ T cells were isolated from PBMCs using magnetic beads and columns (Miltenyi Biotec). […]
(§3) Cells were stained ith antibodies and analyzed by flow cytometry. […] Cell viability was assessed by 7-AAD staining. T cells and tumor cell populations from co-culture assays were quantified by adding CountBright Beads (Invitrogen) to the analysis. T cell memory marker expression on CD8+ T cells re-covered from co-cultures was analyzed by staining cells with FITC-, PE-, ECD-, PerCP-, APC-, APC-AF750, or V450-conjugated Abs against CD45RO, CD45RA, CD62L, CCR7, CD110, mCβ, CD19, and 7AAD. […] To assess cell proliferation, cells were labeled with Carboxyfluorescein succinimidyl ester (CFSE, ThermoFisher) and analyzed after 7 days of culture. […]

BV173 leukemia cells [6] = test: Co-culture of TCR+c-MPL+ T cells with BV173 leukemia cells; type: cell-based, human; details: day 5, E:T 1:3; rhTPO 50 ng/ml, IL2 25 U/ml; noCK 16.7±8.1×10^4
Experimental: as §1

TCR+c-MPL+ T cells [7] = test: RNA-sequencing and GSEA of sequential killer T cells; type: cell-based, human; details: after 3 BV173 challenges, rhTPO 50 ng/mL or EP 0.1 μg/mL
Text: Total RNA was extracted from T cells of 3 independent donors, purified after sequential co-culture in no cytokine, rhTPO or EP (see above and FIG. 4A) using the RNeasy Mini Kit (Qiagen). T cell purification consisted of either dead cell removal alone (see above) or dead cell removal followed by FACS sorting (FACS Aria, BD, Flow Cytometry Core Laboratory at the Texas Children's Hospital Feigin Center), to achieve a >98% T cell purity and T cell viability of >90%. Total RNA samples were sent to GENEWIZ for library preparation and next generation sequencing, with 30 million reads per sample at a 1×50 base pair configuration.
RNA-Seq was performed in triplicates from 3 independent donors for all 3 conditions (control, rhTPO and EP; see main text). Fastq files were aligned to the transcriptome using HiSat2 with default parameters (Kim et al., 2015). Following alignment and quality control analysis, one replicate of the control dataset was removed due to poor signal to noise ratio. Transcripts were assembled and FPKM values were generated using cuffquant and cuffnorm from the cufflinks software suite (Trapnell et al., 2010) Active transcripts were defined as transcripts with a normalized FPKM value greater than 1 in at least one sample. […]

TCR+ T cells = test: Antigen-specific expansion with survivin peptide-pulsed aAPCs, TCR+ T cells; type: cell-based, human; details: IL-2 50 U/mL; rhTPO up to 500 ng/ml
Experimental: At the end of the first stimulation (7 days), cells were collected, counted, phenotyped and re-stimulated with fresh peptide-pulsed aAPCs under the same conditions. Fold expansion was recorded at the end of the second stimulation.

NT T cells = test: Expansion of non-transduced (NT) T cells in TPO; type: cell-based, human; details: cell number from 3×10^6 cells, TPO 50 ng/ml, mean±SD, n=4
Experimental: as §2, §3

c-MPL+ cells = test: c-MPL ligand-dependent STAT3/STAT5 phosphorylation in TCR+c-MPL+ T cells; type: cell-based, human; details: TPO 50 ng/ml or EP 0.1 μg/ml, 1 or 24 hours; c-MPL- cells did not
Experimental: Similar results were obtained with the TPO small molecule agonist EP. A dose-titration experiment was used to determine the optimal concentration of EP to support c-MPL+ T cell expansion (FIG. 2C). EP was previously shown to inhibit leukemia cell proliferation at higher concentrations (1-10 μg/ml) by reduction of intracellular iron, a c-MPL independent effect (Roth et al., 2012). NT or c-MPL+ T cells were re-activated on OKT3/CD28-coated plates in the presence of different EP concentrations and expansion of viable T cells was determined after 7 days. […] Next, it was evaluated whether rhTPO enhanced the anti-tumor function of TCR+c-MPL+ T cells using two different HLA-A*0201+survivin+hematologic malignancies as targets (U266 multiple myeloma, BV173 leukemia) (FIGS. 2E-2F). […]
Cells were stained ith antibodies and analyzed by flow cytometry. […] Cell viability was assessed by 7-AAD staining. T cells and tumor cell populations from co-culture assays were quantified by adding CountBright Beads (Invitrogen) to the analysis. T cell memory marker expression on CD8+ T cells re-covered from co-cultures was analyzed by staining cells with FITC-, PE-, ECD-, PerCP-, APC-, APC-AF750, or V450-conjugated Abs against CD45RO, CD45RA, CD62L, CCR7, CD110, mCβ, CD19, and 7AAD. […]

[8] = after three tumor cell challenges
[9] = baseline after T cell expansion

| Molecule | T cell expansion in TPO 50 ng/ml (cell number by day 7 from 3x10^6 cells) [1] [cells] | residual U266 cells (U266 myeloma cells; day 5, E:T 1:1, TCR+c-MPL+ T cells, noCK 43.3±1.1×10^5) | T cell count in U266 co-culture (U266 myeloma cells; day 5, E:T 1:1, noCK 1.84±0.31×10^5) | antigen-specific expansion of TCR+c-MPL+ T cells (TCR+c-MPL+ T cells [2]) | T cell expansion in serial co-culture (BV173 leukemia cells [3]; E:T 1:5, versus no cytokines) | CD45RA+CD45RO+ and central memory cells among persistent T cells (BV173 leukemia cells [3]; serial co-culture) | Th1 cytokine production in sequential co-cultures (BV173 leukemia cells [3]; supernatants 24 hours after tumor cell challenge) | STAT5 phosphorylation in c-MPL+ T cells [4] | MTOC to synapse distance, co-culture [5, 8] [μm] | perforin distance to the synapse (perforin convergence), co-culture [5, 8] [μm] | actin accumulation at the synapse, co-culture ([5]; after three tumor cell challenges, rhTPO 50 ng/mL or EP 0.1 μg/mL) [%] | MTOC to synapse distance, baseline [5, 9] [μm] | actin accumulation at the synapse, baseline [5, 9] [%] | perforin distance to the synapse (perforin convergence), baseline [5, 9] [μm] | c-MPL+ cells in TPO by day 7 (c-MPL+ T cells) | T cell count in BV173 co-culture (BV173 leukemia cells [6]) | cell cycle associated genes in T cells from treated co-cultures versus controls (TCR+c-MPL+ T cells [7]) | antigen-specific expansion of TCR+ T cells (TCR+ T cells) | NT cells in TPO by day 7 (NT T cells) | STAT3 and STAT5 phosphorylation in c-MPL+ cells (c-MPL+ cells) |
| --- | --- | --- | --- | --- | --- | --- | --- | --- | --- | --- | --- | --- | --- | --- | --- | --- | --- | --- | --- | --- |
| recombinant human thrombopoietin (TPO) (from UniProt P40225 22-195) (ligand) | 7.44e+06 |  |  |  |  |  |  |  |  |  |  |  |  |  |  |  |  |  |  |  |
| B1 |  | 22.8±11.2×10^5 | 4.41±5.11×10^5 | expanded in a TPO-dose dependent manner | significantly enhanced | enrichment | sustained | occurred | 1.46±1.58 | 3.68±1.70 | 52.60±16.32 | 3.96±2.49 | 35.23±16.41 | 3.53±1.00 | 7.44±0.99×10^6 | 31.5±19.1×10^4 | downregulated | not | 0.89±0.61×10^6 | phosphorylated |
